This note sets out measurements from paper PMC11743776, “Isoxazole-based molecules restore NK cell immune surveillance in hepatocarcinogenesis by targeting TM4SF5 and SLAMF7 linkage” (Signal Transduction and Targeted Therapy, 2025).

T1: TM4SF5 (Homo sapiens, UniProt O14894)
T1 construct: Strep-TM4SF5 WT (pulled down from HEK293FT) or HA-TM4SF5 (immunoprecipitated from Huh7KO)
T1 sequence (O14894 1-197): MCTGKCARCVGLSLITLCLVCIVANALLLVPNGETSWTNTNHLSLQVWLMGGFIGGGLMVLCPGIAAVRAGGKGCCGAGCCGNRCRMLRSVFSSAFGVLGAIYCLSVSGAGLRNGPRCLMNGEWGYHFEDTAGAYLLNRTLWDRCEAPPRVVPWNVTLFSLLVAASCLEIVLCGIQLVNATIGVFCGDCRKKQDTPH

B1: SLAMF7: NQ#6 (protein)
parent chain: MAGSPTCLTLIYILWQLTGSAASGPVKELVGSVGGAVTFPLKSKVKQVDSIVWTFNTTPLVTIQPEGGTIIVTQNRNRERVDFPDGGYSLKLSKLKKNDSGIYYVGIYSSSLQQPSTQEYVLHVYEHLSKPKVTMGLQSNKNGTCVTNLTCCMEHGEEDVIYTWKALGQAANESHNGSILPISWRWGESDMTFICVARNPVSRNFSSPILARKLCEGAADDPDSSMVLLCLLLVPLLLSLFVLGLFLWFLKRERQEEYIEEKKRVDICRETPNICPHSGENTEYDTIPHTNRTILKEDPANTVYSTVEIPKKMENPHSLLTMPDTPRLFAYENVI
B2: SLAMF7: NQ#123 (protein)
parent chain: MAGSPTCLTLIYILWQLTGSAASGPVKELVGSVGGAVTFPLKSKVKQVDSIVWTFNTTPLVTIQPEGGTIIVTQNRNRERVDFPDGGYSLKLSKLKKNDSGIYYVGIYSSSLQQPSTQEYVLHVYEHLSKPKVTMGLQSNKNGTCVTNLTCCMEHGEEDVIYTWKALGQAANESHNGSILPISWRWGESDMTFICVARNPVSRNFSSPILARKLCEGAADDPDSSMVLLCLLLVPLLLSLFVLGLFLWFLKRERQEEYIEEKKRVDICRETPNICPHSGENTEYDTIPHTNRTILKEDPANTVYSTVEIPKKMENPHSLLTMPDTPRLFAYENVI
B3: SLAMF7: NQ#456 (protein)
parent chain: MAGSPTCLTLIYILWQLTGSAASGPVKELVGSVGGAVTFPLKSKVKQVDSIVWTFNTTPLVTIQPEGGTIIVTQNRNRERVDFPDGGYSLKLSKLKKNDSGIYYVGIYSSSLQQPSTQEYVLHVYEHLSKPKVTMGLQSNKNGTCVTNLTCCMEHGEEDVIYTWKALGQAANESHNGSILPISWRWGESDMTFICVARNPVSRNFSSPILARKLCEGAADDPDSSMVLLCLLLVPLLLSLFVLGLFLWFLKRERQEEYIEEKKRVDICRETPNICPHSGENTEYDTIPHTNRTILKEDPANTVYSTVEIPKKMENPHSLLTMPDTPRLFAYENVI
B4: SLAMF7: NQ#3 (protein)
parent chain: MAGSPTCLTLIYILWQLTGSAASGPVKELVGSVGGAVTFPLKSKVKQVDSIVWTFNTTPLVTIQPEGGTIIVTQNRNRERVDFPDGGYSLKLSKLKKNDSGIYYVGIYSSSLQQPSTQEYVLHVYEHLSKPKVTMGLQSNKNGTCVTNLTCCMEHGEEDVIYTWKALGQAANESHNGSILPISWRWGESDMTFICVARNPVSRNFSSPILARKLCEGAADDPDSSMVLLCLLLVPLLLSLFVLGLFLWFLKRERQEEYIEEKKRVDICRETPNICPHSGENTEYDTIPHTNRTILKEDPANTVYSTVEIPKKMENPHSLLTMPDTPRLFAYENVI
B5: SLAMF7: NQ#2 (protein)
parent chain: MAGSPTCLTLIYILWQLTGSAASGPVKELVGSVGGAVTFPLKSKVKQVDSIVWTFNTTPLVTIQPEGGTIIVTQNRNRERVDFPDGGYSLKLSKLKKNDSGIYYVGIYSSSLQQPSTQEYVLHVYEHLSKPKVTMGLQSNKNGTCVTNLTCCMEHGEEDVIYTWKALGQAANESHNGSILPISWRWGESDMTFICVARNPVSRNFSSPILARKLCEGAADDPDSSMVLLCLLLVPLLLSLFVLGLFLWFLKRERQEEYIEEKKRVDICRETPNICPHSGENTEYDTIPHTNRTILKEDPANTVYSTVEIPKKMENPHSLLTMPDTPRLFAYENVI
B6: SLAMF7: NQ#1456 (protein)
parent chain: MAGSPTCLTLIYILWQLTGSAASGPVKELVGSVGGAVTFPLKSKVKQVDSIVWTFNTTPLVTIQPEGGTIIVTQNRNRERVDFPDGGYSLKLSKLKKNDSGIYYVGIYSSSLQQPSTQEYVLHVYEHLSKPKVTMGLQSNKNGTCVTNLTCCMEHGEEDVIYTWKALGQAANESHNGSILPISWRWGESDMTFICVARNPVSRNFSSPILARKLCEGAADDPDSSMVLLCLLLVPLLLSLFVLGLFLWFLKRERQEEYIEEKKRVDICRETPNICPHSGENTEYDTIPHTNRTILKEDPANTVYSTVEIPKKMENPHSLLTMPDTPRLFAYENVI
B7: SLAMF7: NQ#1 (protein)
parent chain: MAGSPTCLTLIYILWQLTGSAASGPVKELVGSVGGAVTFPLKSKVKQVDSIVWTFNTTPLVTIQPEGGTIIVTQNRNRERVDFPDGGYSLKLSKLKKNDSGIYYVGIYSSSLQQPSTQEYVLHVYEHLSKPKVTMGLQSNKNGTCVTNLTCCMEHGEEDVIYTWKALGQAANESHNGSILPISWRWGESDMTFICVARNPVSRNFSSPILARKLCEGAADDPDSSMVLLCLLLVPLLLSLFVLGLFLWFLKRERQEEYIEEKKRVDICRETPNICPHSGENTEYDTIPHTNRTILKEDPANTVYSTVEIPKKMENPHSLLTMPDTPRLFAYENVI
B8: SLAMF7: NQ#23456 (protein)
parent chain: MAGSPTCLTLIYILWQLTGSAASGPVKELVGSVGGAVTFPLKSKVKQVDSIVWTFNTTPLVTIQPEGGTIIVTQNRNRERVDFPDGGYSLKLSKLKKNDSGIYYVGIYSSSLQQPSTQEYVLHVYEHLSKPKVTMGLQSNKNGTCVTNLTCCMEHGEEDVIYTWKALGQAANESHNGSILPISWRWGESDMTFICVARNPVSRNFSSPILARKLCEGAADDPDSSMVLLCLLLVPLLLSLFVLGLFLWFLKRERQEEYIEEKKRVDICRETPNICPHSGENTEYDTIPHTNRTILKEDPANTVYSTVEIPKKMENPHSLLTMPDTPRLFAYENVI
B9: SLAMF7: NQ#2456 (protein)
parent chain: MAGSPTCLTLIYILWQLTGSAASGPVKELVGSVGGAVTFPLKSKVKQVDSIVWTFNTTPLVTIQPEGGTIIVTQNRNRERVDFPDGGYSLKLSKLKKNDSGIYYVGIYSSSLQQPSTQEYVLHVYEHLSKPKVTMGLQSNKNGTCVTNLTCCMEHGEEDVIYTWKALGQAANESHNGSILPISWRWGESDMTFICVARNPVSRNFSSPILARKLCEGAADDPDSSMVLLCLLLVPLLLSLFVLGLFLWFLKRERQEEYIEEKKRVDICRETPNICPHSGENTEYDTIPHTNRTILKEDPANTVYSTVEIPKKMENPHSLLTMPDTPRLFAYENVI
B10: TM4SF5: Gly− (protein)
parent chain: MCTGKCARCVGLSLITLCLVCIVANALLLVPNGETSWTNTNHLSLQVWLMGGFIGGGLMVLCPGIAAVRAGGKGCCGAGCCGNRCRMLRSVFSSAFGVLGAIYCLSVSGAGLRNGPRCLMNGEWGYHFEDTAGAYLLNRTLWDRCEAPPRVVPWNVTLFSLLVAASCLEIVLCGIQLVNATIGVFCGDCRKKQDTPH

One series has as its target T1, TM4SF5. Nature of the series: […]-radioligand binding to pulled-down/immunoprecipitated TM4SF5, blocked by cold ST-5-002; EC50 by titration (about […] or […] for the differently tagged proteins).
Conditions: not given
`Cc1ccc(C(=O)Nc2ccc(-c3cc(-c4ccc(O)cc4)no3)cc2)cc1` [ST-5-002, N-(4-(3-(4-hydroxyphenyl)isoxazol-5-yl)phenyl)-4-methylbenzamide] had an EC50 of approximately 0.85 µM.

Target in a further series: not listed separately
Kind of series: confocal immunofluorescence colocalisation. Conditions: glycan lost; control: FLAG-SLAMF7 WT.
With B1, the localisation_or_trafficking result is recorded as “abolishes”.

In the case of B2, the localisation_or_trafficking result is reported as “no change”.

For B3, the localisation_or_trafficking result is listed as “abolishes”.

Target in another series: not listed separately
Kind of series: immunoblot of SLAMF7 level with TM4SF5 expression. To be noted: glycan lost; control: WT SLAMF7, TM4SF5 co-expressed.
Turning to B4, the expression_or_secretion result is “no change”.

Consider B5, for which the expression_or_secretion entry is recorded as “no change”.

Consider B2, for which the expression_or_secretion entry is listed as “no change”.

Regarding B6, the expression_or_secretion result is recorded as “increases”.

With B7, the expression_or_secretion entry is given as “no change”.

Turning to B3, the expression_or_secretion result is reported as “increases”.

B8: the expression_or_secretion result is “increases”.

As for B9, the expression_or_secretion result is “increases”.

Target in a further series: not listed separately
Kind of series: immunoblot of SLAMF7 in co-transfected SNU761 cells. Conditions: glycan lost; control: Strep-TM4SF5 WT.
B10: the “other: downregulation of SLAMF7 level” value is on record as “abolishes”.
